# Measurements reported in patent publication US20030087316A1, “Diagnostic markers of liver dysfunction” (priority 2001, published 2003).
# “Also recorded” adds a separate entry of the source.
# T1: C1s (Homo sapiens, UniProt P09871)
# T1 construct: purchased Advanced Research Technologies (San Diego, Calif.)
# T1 sequence (P09871 438-688 limits assumed): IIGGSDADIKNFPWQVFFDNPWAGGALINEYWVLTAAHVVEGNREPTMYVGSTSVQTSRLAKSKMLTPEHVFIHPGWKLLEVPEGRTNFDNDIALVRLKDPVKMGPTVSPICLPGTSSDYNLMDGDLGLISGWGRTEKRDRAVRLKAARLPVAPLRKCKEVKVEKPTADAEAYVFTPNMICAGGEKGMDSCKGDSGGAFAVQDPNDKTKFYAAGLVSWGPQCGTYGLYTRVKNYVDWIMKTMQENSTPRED
# T1 sequence (P09871 16-437 partner limits assumed): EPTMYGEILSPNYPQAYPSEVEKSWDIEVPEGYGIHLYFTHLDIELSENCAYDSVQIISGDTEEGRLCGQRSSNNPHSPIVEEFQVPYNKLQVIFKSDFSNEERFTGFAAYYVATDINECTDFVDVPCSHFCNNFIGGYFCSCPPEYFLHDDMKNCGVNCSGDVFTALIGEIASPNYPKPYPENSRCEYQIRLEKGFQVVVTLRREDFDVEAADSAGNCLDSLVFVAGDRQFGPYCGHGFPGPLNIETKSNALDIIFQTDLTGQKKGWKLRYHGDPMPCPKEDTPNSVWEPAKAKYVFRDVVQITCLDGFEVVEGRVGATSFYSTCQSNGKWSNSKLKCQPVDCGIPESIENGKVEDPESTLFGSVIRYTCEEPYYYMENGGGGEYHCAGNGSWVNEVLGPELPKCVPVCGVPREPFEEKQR
# Tests used:
# thrombin = target: T2, thrombin (Homo sapiens, UniProt P00734); assay: Peptidase (amidolytic) activity of purified thrombin, chromogenic substrate, OD 405 nm; assay type: biochemical
# T2 construct: purchased Calbiochem-Novabiochem Corp (La Jolla, Calif.)
# [1] = tested on: proteinase(s) in EDTA plasma from LTR (kallikrein-like peptidase); assay: Peptidase activity in EDTA plasma from liver transplant recipients (LTR), chromogenic substrate, OD 405 nm; assay type: biochemical, human; conditions: for % Residual activity, LTR 1 / % Residual activity, LTR 2 / % Residual activity, LTR 3: substrate AGLTR-pNA; for Inhibition of the LTR plasma peptidase activity, in words: text on Tables 2 and 3, concentrations as there
# Description: Blood samples were drawn into 5 ml EDTA tubes (Venoject; Terumo Corp., Elkton, Md.). The plasma was collected immediately by centrifugation at 2,000×g for 15 min at 4° C. The plasma samples were either processed immediately for analysis or stored at −70° C. Frozen samples were thawed at 4° C. prior to analysis.
# (§1) The peptidase activity in plasma samples or of the purified enzymes were routinely determined at 37° C. in a 96-well plate. Each well contained 0.5 mM substrate in 100 μl of Tris-buffered saline (TBS)-EDTA buffer (50 mM Tris/150 mM NaCl/10 mM EDTA, pH 7.8) and the reaction was monitored using a microplate reader (Titertek Multiscan, Labsystems, Needham Heights, Mass.).
# (§2) The enzymes C1s (100 nM), plasm in (100 nM), thrombin (100 nM), plasma kallikrein (20 nM), β-FXIIa (100 nM), trypsin (16 nM) or LTR EDTA plasma samples were incubated for 60 min at 4° C. with TBS-EDTA buffer containing either LBTI (1 mg/ml), SBTI (I mg/ml), aprotinin (0.075 mg/ml), benzamidine (50 mM), or Futhan (0.1 mg/ml), before mixing with the substrate. EDTA plasma samples from LTR were diluted 10 or 20-fold with TBS-EDTA. The chromogenic substrate AGLTR-pNA was used for all enzymes and LTR samples except C1s where the substrate S2288 was used. Based on the initial rate of increase in OD at 405 nm, the residual free enzyme level was calculated and expressed as a percentage of total activity without inhibitor added.
# (§3) Ten-fold diluted normal EDTA plasma was added to each enzyme. The enzymes C1s (100 nM), plasmin (100 nM), thrombin (100 nM), plasma kallikrein (20 nM), β-FXIIa (100 nM), trypsin (16 nM) or LTR EDTA plasma samples were incubated for 60 min at 4° C. with TBS-EDTA buffer containing either C1INH (40 μg/ml), bdellin (50 μg/ml), hirudin (50 U/ml), PPACK 11(10 μM), or CTI (100 μg/ml), before adding the substrate. LTR samples were 10 or 20-fold diluted with TBS-EDTA. The chromogenic substrate AGLTR-pNA was used for all enzymes and LTP samples except C1s where the substrate S2288 was used. Based on the initial rate of increase in OD at 405 nm, the residual free enzyme was calculated and expressed as a percentage of total activity determined without inhibitor added.
# C1s = target: T1, C1s; assay: Peptidase (amidolytic) activity of purified C1s, chromogenic substrate, 96-well plate, OD 405 nm; assay type: biochemical; conditions: for % Residual activity, C1s: substrate S2288; for Inhibition of C1s, in words: text on Tables 2 and 3, concentrations as there
# Description: as §1, §2, §3
# plasma kallikrein = target: T3, plasma kallikrein (Homo sapiens, UniProt P03952); assay: Peptidase (amidolytic) activity of purified plasma kallikrein, chromogenic substrate, OD 405 nm; assay type: biochemical; conditions: for % Residual activity, Plasma Kallikrein: substrate AGLTR-pNA; for Inhibition of purified plasma kallikrein activity, in words: text on Tables 2 and 3, concentrations as there
# T3 construct: The light chain of kallikrein contains the enzymatic domain; purchased Calbiochem-Novabiochem Corp (La Jolla, Calif.)
# Description: as §1
# (§4) […] EDTA plasma samples from LTR were diluted 10 or 20-fold with TBS-EDTA. The chromogenic substrate AGLTR-pNA was used for all enzymes and LTR samples except C1s where the substrate S2288 was used. Based on the initial rate of increase in OD at 405 nm, the residual free enzyme level was calculated and expressed as a percentage of total activity without inhibitor added.
# (§5) Ten-fold diluted normal EDTA plasma was added to each enzyme. […] LTR samples were 10 or 20-fold diluted with TBS-EDTA. The chromogenic substrate AGLTR-pNA was used for all enzymes and LTP samples except C1s where the substrate S2288 was used. Based on the initial rate of increase in OD at 405 nm, the residual free enzyme was calculated and expressed as a percentage of total activity determined without inhibitor added.
# plasmin = target: T4, plasmin (Homo sapiens, UniProt P00747); assay: Peptidase (amidolytic) activity of purified plasmin, chromogenic substrate, OD 405 nm; assay type: biochemical; conditions: for Inhibition of plasmin amidolytic activity, in words: concentrations as there; for % Residual activity, Plasmin: substrate AGLTR-pNA
# T4 construct: purchased Calbiochem-Novabiochem Corp (La Jolla, Calif.)
# Description: as §1, §2, §3
# β-Factor XIIa (β-FXIIa) = target: T5, β-Factor XIIa (β-FXIIa) (Homo sapiens, UniProt P00748); assay: Peptidase (amidolytic) activity of purified β-FXIIa, chromogenic substrate, OD 405 nm; assay type: biochemical; conditions: substrate AGLTR-pNA
# T5 construct: β-Factor XIIa (β-FXIIa) was kindly provided by Dr. Mary J. Heeb; gift of Dr. Mary J. Heeb, The Scripps Research Institute
# Description: as §1, §4, §5
# trypsin = assay: Peptidase (amidolytic) activity of purified trypsin, chromogenic substrate, OD 405 nm; assay type: biochemical; conditions: Table 2; for Inhibition of trypsin amidolytic activity, in words: concentrations as there; for % Residual activity, Trypsin: trypsin 16 nM, substrate AGLTR-pNA, 60 min at 4° C. with LBTI 1 mg/ml, SBTI I mg/ml, aprotinin 0.075 mg/ml, benzamidine 50 mM or Futhan 0.1 mg/ml
# Description: as §1, §2
# [2] = Table 3, thrombin 100 nM with ten-fold diluted normal EDTA plasma added, substrate AGLTR-pNA, 60 min at 4° C. with hirudin 50 U/ml or PPACK 11 10 μM
# [3] = Table 3, LTR 1 EDTA plasma 10 or 20-fold diluted, 60 min at 4° C. with C1INH 40 μg/ml, bdellin 50 μg/ml, hirudin 50 U/ml, PPACK 11 10 μM or CTI 100 μg/ml
# [4] = Table 3, LTR 2 EDTA plasma 10 or 20-fold diluted, 60 min at 4° C. with C1INH 40 μg/ml, bdellin 50 μg/ml, hirudin 50 U/ml, PPACK 11 10 μM or CTI 100 μg/ml
# [5] = Table 3, LTR 3 EDTA plasma 10 or 20-fold diluted, 60 min at 4° C. with C1INH 40 μg/ml, bdellin 50 μg/ml, hirudin 50 U/ml, PPACK 11 10 μM or CTI 100 μg/ml
# [6] = Table 3, C1s 100 nM with ten-fold diluted normal EDTA plasma added, 60 min at 4° C. with C1INH 40 μg/ml or PPACK 11 10 μM
# [7] = Table 3, plasma kallikrein 20 nM with ten-fold diluted normal EDTA plasma added, 60 min at 4° C. with C1INH 40 μg/ml or PPACK 11 10 μM
# [8] = Table 2, C1s 100 nM, 60 min at 4° C. with LBTI 1 mg/ml, SBTI I mg/ml, aprotinin 0.075 mg/ml, benzamidine 50 mM or Futhan 0.1 mg/ml, % of total activity without inhibitor
# [9] = Table 2, plasmin 100 nM, 60 min at 4° C. with LBTI 1 mg/ml, SBTI I mg/ml, aprotinin 0.075 mg/ml, benzamidine 50 mM or Futhan 0.1 mg/ml
# [10] = Table 2, thrombin 100 nM, substrate AGLTR-pNA, 60 min at 4° C. with LBTI 1 mg/ml, SBTI I mg/ml, aprotinin 0.075 mg/ml, benzamidine 50 mM or Futhan 0.1 mg/ml
# [11] = Table 2, plasma kallikrein 20 nM, 60 min at 4° C. with LBTI 1 mg/ml, SBTI I mg/ml, aprotinin 0.075 mg/ml, benzamidine 50 mM or Futhan 0.1 mg/ml
# [12] = Table 2, β-FXIIa 100 nM, 60 min at 4° C. with LBTI 1 mg/ml, SBTI I mg/ml, aprotinin 0.075 mg/ml, benzamidine 50 mM or Futhan 0.1 mg/ml
# [13] = Table 2, LTR 1 EDTA plasma diluted 10 or 20-fold, 60 min at 4° C. with LBTI 1 mg/ml, SBTI I mg/ml, aprotinin 0.075 mg/ml, benzamidine 50 mM or Futhan 0.1 mg/ml
# [14] = Table 2, LTR 2 EDTA plasma diluted 10 or 20-fold, 60 min at 4° C. with LBTI 1 mg/ml, SBTI I mg/ml, aprotinin 0.075 mg/ml, benzamidine 50 mM or Futhan 0.1 mg/ml
# [15] = Table 2, LTR 3 EDTA plasma diluted 10 or 20-fold, 60 min at 4° C. with LBTI 1 mg/ml, SBTI I mg/ml, aprotinin 0.075 mg/ml, benzamidine 50 mM or Futhan 0.1 mg/ml
# T3 sequence (P03952 391-638 limits assumed): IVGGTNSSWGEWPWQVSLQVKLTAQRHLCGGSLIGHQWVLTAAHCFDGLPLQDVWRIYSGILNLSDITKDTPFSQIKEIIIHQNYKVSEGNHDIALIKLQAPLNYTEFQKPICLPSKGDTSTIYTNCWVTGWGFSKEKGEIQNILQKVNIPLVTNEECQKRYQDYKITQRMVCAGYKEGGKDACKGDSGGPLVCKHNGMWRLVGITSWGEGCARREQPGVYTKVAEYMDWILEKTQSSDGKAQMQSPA
# T3 sequence (P03952 20-390 partner limits assumed): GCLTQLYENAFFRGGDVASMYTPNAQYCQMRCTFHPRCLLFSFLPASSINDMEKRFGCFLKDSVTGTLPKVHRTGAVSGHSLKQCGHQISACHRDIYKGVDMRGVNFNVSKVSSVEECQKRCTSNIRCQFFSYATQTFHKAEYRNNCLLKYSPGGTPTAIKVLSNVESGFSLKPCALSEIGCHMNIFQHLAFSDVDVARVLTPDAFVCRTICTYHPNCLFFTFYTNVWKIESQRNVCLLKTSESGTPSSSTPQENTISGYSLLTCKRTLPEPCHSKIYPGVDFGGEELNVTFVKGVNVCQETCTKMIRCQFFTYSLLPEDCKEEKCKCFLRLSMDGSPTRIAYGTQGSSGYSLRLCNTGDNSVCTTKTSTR
# T4 sequence (P00747 581-810 limits assumed, species assumed): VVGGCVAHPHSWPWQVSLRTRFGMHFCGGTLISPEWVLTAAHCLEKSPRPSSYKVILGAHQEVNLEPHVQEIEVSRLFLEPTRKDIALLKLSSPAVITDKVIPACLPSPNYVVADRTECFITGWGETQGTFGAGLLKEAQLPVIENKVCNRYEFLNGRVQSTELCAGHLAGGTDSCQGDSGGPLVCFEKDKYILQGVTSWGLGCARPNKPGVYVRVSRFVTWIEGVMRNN
# T4 sequence (P00747 97-580 partner limits assumed, species assumed): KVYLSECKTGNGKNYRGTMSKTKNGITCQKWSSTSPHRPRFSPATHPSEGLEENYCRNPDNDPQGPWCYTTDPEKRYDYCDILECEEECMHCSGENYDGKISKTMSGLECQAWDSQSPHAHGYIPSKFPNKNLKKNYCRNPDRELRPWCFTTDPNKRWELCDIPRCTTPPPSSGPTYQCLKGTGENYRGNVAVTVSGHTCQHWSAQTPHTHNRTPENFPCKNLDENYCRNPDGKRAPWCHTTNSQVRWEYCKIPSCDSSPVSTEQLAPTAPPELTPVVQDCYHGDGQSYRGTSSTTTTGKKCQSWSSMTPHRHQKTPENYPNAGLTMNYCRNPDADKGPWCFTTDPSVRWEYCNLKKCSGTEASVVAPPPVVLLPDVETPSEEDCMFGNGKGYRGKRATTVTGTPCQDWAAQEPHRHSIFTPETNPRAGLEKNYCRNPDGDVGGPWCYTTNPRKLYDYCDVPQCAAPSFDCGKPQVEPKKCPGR
# T5 sequence (P00748 373-615 limits assumed, other chains not shown): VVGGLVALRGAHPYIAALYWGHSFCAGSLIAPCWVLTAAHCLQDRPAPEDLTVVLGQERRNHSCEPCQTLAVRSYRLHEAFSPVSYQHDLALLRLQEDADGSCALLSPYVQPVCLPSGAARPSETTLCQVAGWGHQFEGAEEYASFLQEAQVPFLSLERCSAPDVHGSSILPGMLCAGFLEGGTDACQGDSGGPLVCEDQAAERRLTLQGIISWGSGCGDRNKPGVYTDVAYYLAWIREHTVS
Molecule,"% Residual activity, Thrombin (thrombin; [2])","% Residual activity, LTR 1 [1, 3]","% Residual activity, LTR 2 [1, 4]","% Residual activity, LTR 3 [1, 5]","Inhibition of the LTR plasma peptidase activity, in words [1]","% Residual activity, C1s (C1s; [6])","Inhibition of C1s, in words (C1s)","% Residual activity, Plasma Kallikrein (plasma kallikrein; [7])","Inhibition of purified plasma kallikrein activity, in words (plasma kallikrein)","% Residual activity, C1s (C1s; [8])","Inhibition of plasmin amidolytic activity, in words (plasmin; Table 2)","% Residual activity, Plasmin (plasmin; [9])","% Residual activity, Thrombin (thrombin; [10])","% Residual activity, Plasma Kallikrein (plasma kallikrein; [11])","% Residual activity, β-FXIIa (β-Factor XIIa (β-FXIIa); [12])","Inhibition of trypsin amidolytic activity, in words (trypsin)","% Residual activity, Trypsin (trypsin)","% Residual activity, LTR 1 [1, 13]","% Residual activity, LTR 2 [1, 14]","% Residual activity, LTR 3 [1, 15]",also measured
Hirudin,2.6%,100.4%,99.5%,104.1%,failed to reduce the plasma peptidase activity; also recorded: not inhibited,–,–,–,–,–,–,–,–,–,–,–,–,–,–,–,"Inhibition of thrombin by hirudin (FIG. 8), in words (thrombin; 50 U/ml hirudin, substrate AGLTR-pNA, versus time at 37° C.): effectively inhibited; Inhibition of thrombin, in words (thrombin; Table 3): a very effective thrombin inhibitor"
"C1INH: human C1 esterase inhibitor, purchased from Sigma Chemical",–,81.4%,84.0%,41.0%,caused only partial inhibition,37.8%,only partially inhibited C1s,37.0%,caused only partial inhibition,–,–,–,–,–,–,–,–,–,–,–,"Inhibition of the LTR plasma peptidase activity, in words ([1]; listed as CINH): inhibited partially"
aprotinin,–,–,–,–,only partially effective,–,but not C1s,–,efficiently inhibited,104.8%,efficiently inhibited,2.4%,84.6%,3.5%,106.0%,efficiently inhibited,4.8%,35.3%,40.2%,21.4%,–
D-Phe-Phe-Arg-chloromethylketone [PPACK II],0.7%,−0.2%,0.6%,2.7%,totally inhibited; also recorded: substantially inhibited,82.2%,failed to inhibit C1s,0.0%,totally inhibited,–,–,–,–,–,–,–,–,–,–,–,"% Residual activity, Plasmin (plasmin; Table 3, plasmin 100 nM with ten-fold diluted normal EDTA plasma added, 60 min at 4° C. with bdellin 50 μg/ml or PPACK 11 10 μM): 9.2%; % Residual activity, β-FXIIa (β-Factor XIIa (β-FXIIa); Table 3, β-FXIIa 100 nM with ten-fold diluted normal EDTA plasma added, 60 min at 4° C. with PPACK 11 10 μM or CTI 100 μg/ml): 8.4%"
"SBTI: soybean trypsin inhibitor, purchased from Sigma Chemical (protein, UniProt P01070 25-205, looked up) Trypsin inhibitor A: DFVLDNEGNPLENGGTYYILSDITAFGGIRAAPTGNERCPLTVVQSRNELDKGIGTIISSPYRIRFIAEGHPLSLKFDSFAVIMLCVGIPTEWSVVEDLPEGPAVKIGENKDAMDGWFRLERVSDDEFNNYKLVFCPQQAEDDKCGDIGISIDHDDGTRRLVVSKNKPLVVQFQKLDKESL",–,–,–,–,only partially effective,–,but not C1s,–,efficiently inhibited,123.6%,efficiently inhibited,3.7%,46.7%,2.2%,109.1%,efficiently inhibited,5.3%,44.2%,61.9%,28.8%,–
